Positions of bridges follow the written chain, without caps; N, C: chain ends. Non-standard residues stand in square brackets, D forms with d. Residues, ends and D or L forms follow the SMILES beside them. *: point of attachment. X1 = CCN(CC)c1ccc2c(-c3ccc(S(=O)(=O)*)cc3S(=O)(=O)[O-])c3ccc(=[N+](CC)CC)cc-3oc2c1; Biotin = O=C1N[C@H]2[C@H](CS[C@H]2CCCCC(=O)*)N1; Dopa = N[C@@H](Cc1ccc(O)c(O)c1)C(=O)O; Dap = NC[C@H](N)C(=O)O
Columns and labels:
[1] = test system: bovine brain endothelial cells; assay: Transport across the BBB, in vitro bovine cell assay (co-culture, transwell); conditions: bovine cell model; for Transport (%) (2h) / Papp (x 10^6) cm/s: 37 °C, Ringer-HEPES pH 7.4, 200 µM (Example 21: 1.75 µM), 2 h; for Papp (x 10^6) cm/s: triplicate; for detection of the cargo alone in the acceptor compartments by MALDI-TOF MS: after the 2 h assay, cargo without shuttle
Source text: (§1) The evaluation method chosen to test the compounds of formula (I) and (II) of the invention was a cell-based assay consisting of a co-culture of brain endothelial cells and astrocytes, which allows to evaluate or to predict the transport of compounds through the BBB. The co-culture method used was described by Gaillard and de Boer in 2008 (Gaillard, PJ et al. "2B-Trans technology: targeted drug delivery across the blood-brain barrier" Methods Mol Biol 2008, vol. 437 pp. 161-175) and consists in seeding of rat astrocytes in a side of a polycarbonate filter (transwell) and bovine brain endothelial cells on the other side of the filter. Under these conditions endothelial cells are able to reach the confluence mimicking the BBB. […] Is commonly used model for permeation studies and toxicity of compounds across the BBB.
(§2) The co-culture assay was used to determine the capacity of the constructs cargo-shuttle to cross the BBB. The apparent permeability of the compounds was measured in triplicate at a concentration of 200 µ M for Examples 1, 2, 3, 5, 10, 13, 15, 16, 17 and 19 and at a concentration of 1.75 µM for Example 21. All the assays were performed with transendothelial electrical resistance values equal or higher than 100 Ω · cm^2 and were carried out in the presence of lucifer yellow to assess the integrity of the cell membrane during the test. The permeability tests were performed in Ringer-HEPES buffer at pH 7.4. The compound of interest was dissolved in the buffer to the desired concentration.
(§3) Once the endothelial cells were confluent on the filters (transwells) these were washed with Ringer-HEPES buffer. The acceptor well was filled with 800 µ L of Ringer-HEPES buffer and the donor well with 200 µL of the solution of the compound to be studied. The system was incubated at 37 °C and 5% CO2 for 2 h. After that time the content of the acceptor and donor compartments were analyzed by HPLC-UV, direct ELISA or fluorescence (depending on cargo anchored to the shuttle). […] The apparent permeability was calculated using the following equation: Papp = (dQ/dt) * (1/A) * (1/CO) (cm/s), where (dQ/dt) is the amount of compound present in the compartment acceptor function of time (nmol/s). A is the area of the filter(cm2) and CO is the initial concentration of the compound applied in the donor compartment (nmol/mL).

[2] = Stability of the shuttles in human serum; format: in vitro ADME; conditions: HBSS, 37 °C, 90% human serum
Description: Regarding to the stability study in human serum of the BBB-shuttle (examples 1, 2, 3 and 5), the peptides were incubated at a concentration of 400 µM in buffer HBSS at 37 °C in the presence of 90% human serum. At a range of times, 100 µL aliquots were collected to which methanol was added in order to precipitate the serum proteins. Samples were centrifuged, filtered and analyzed by HPLC-UV and MALDI-TOF MS to determine the degree of degradation of the BBB-shuttle. […] The half life of the derivative bearing a single disulfide bond was 3 h (examples 2), whereas that of the linear version was no more than 8 min.

[3] = Transport across the BBB, in vitro bovine cell assay (co-culture, transwell); conditions: pH 7.4; for Papp at 2 h: bovine
Source text: as §1, §2, §3

[4] = test system: human endothelial cells derived from hematopoietic stem cells; assay: Transport across the BBB, in vitro human cell assay (co-culture, transwell); format: in vitro ADME; conditions: human cell model, 37 °C, 25 nM Examples 22 and 23, 30 nM Example 24, 5 nM Example 25; for Transport (%) (2h): Ringer-HEPES pH 7.4, 200 µM peptides
Description: (§4) Due to the great interest to know whether the cargo-BBB shuttle conjugates would be transported across human brain endothelial cells, some of the most relevant cargoes for therapy and diagnosis were assayed in a novel human-based BBB cell model. In this case, the co-culture method used was described by Cecchelli et al. (Cecchelli et al. PloS One. 2014. vol9. pp. e99733) and consists in seeding bovine pericytes in the bottom of a 12-well plate and human endothelial cells derived from hematopoietic stem cells on a transwell filter.
(§5) The compound of interest was disolved or buffer-exhanged and diluted to the desired concentration.
(§6) Cetuximab and cetuximab conjugates were radiolabelled to be assayed in the cell model. Pierce^(R) iodination beads were used following the instructions provided by the manufacturer.
(§7) The apparent permeability was calculated using the same equation as for the bovine cell model.

[5] = as above; format: in vitro ADME; conditions: human cell model, 37 °C, Ringer-HEPES pH 7.4, 200 µM peptides, 25 nM Examples 22 and 23, 30 nM Example 24, 5 nM Example 25, read-out: Papp (x 10^6)
Description: as §4, §5, §6, §7

In the case of “5(6)-Carboxyfluorescein-Cys-Asn-Cys-Lys-Ala-Pro-Glu-Thr-Ala-Leu-Cys-Ala-Ala-Ala-Cys-His-NH2 ({5(6)‑carboxyfluorescein}-CNCKAPETALCAAACH-NH2; disulfide 1-11, 3-15) [Example 10]”, the “Transport (%) (2h)” value [1] is reported as 3.7±1.8% and the “Papp (x 10^6) cm/s” value [1] is reported as 3.1±1.5 (x 10^6) cm/s.
In the case of 5(6)-carboxyfluorescein, the “detection of the cargo alone in the acceptor compartments by MALDI-TOF MS” value (“detection of the cargo alone” for short) [1] is reported as “not detected”.
In the case of `CC(C)C[C@@H]1NC(=O)[C@H](C)NC(=O)[C@H]([C@@H](C)O)NC(=O)[C@H](CCC(=O)O)NC(=O)[C@@H]2CCCN2C(=O)[C@H](C)NC(=O)[C@H](CCCCN)NC(=O)[C@@H](N)CNC(=O)C[C@@H](C(N)=O)NC1=O` [Example 3, H-Dap-Lys-Ala-Pro-Glu-Thr-Ala-Leu-Asp-NH2] (H-[Dap]KAPETALD-NH2; lactam 1-9), the “degradation in human serum” value ([2]; 400 µM, 24 h) is reported as “No degradation”, the Papp at 2 h [3] is reported as 5.1 ± 0.6 ×10⁻⁶ cm/s and the “Transport (%) (2h)” value [1] is reported as 6.0±0.7%. The “Transport (%) (2h)” value [4] was 10.9±1.1%.
With `CCN(CC)c1ccc2c(-c3ccc(S(=O)(=O)NCC(=O)N[C@H]4CSSC[C@@H]5NC(=O)[C@H](CC(C)C)NC(=O)[C@H](C)NC(=O)[C@H]([C@@H](C)O)NC(=O)[C@H](CCC(=O)O)NC(=O)[C@@H]6CCCN6C(=O)[C@H](C)NC(=O)[C@H](CCCCN)NC(=O)[C@H](CSSC[C@@H](C(=O)N[C@@H](Cc6c[nH]cn6)C(N)=O)NC(=O)[C@H](C)NC(=O)[C@H](C)NC(=O)[C@H](C)NC5=O)NC(=O)[C@H](CC(N)=O)NC4=O)cc3S(=O)(=O)[O-])c3ccc(=[N+](CC)CC)cc-3oc2c1` [Example 13, sulforhodamine b-Gly-Cys-Asn-Cys-Lys-Ala-Pro-Glu-Thr-Ala-Leu-Cys-Ala-Ala-Ala-Cys-His-NH2] (X1-GCNCKAPETALCAAACH-NH2; disulfide 2-12, 4-16) the Papp [3] was 2 ± 0.3 ×10⁻⁶ cm/s and the “Transport (%) (2h)” value [1] was 2.4±0.4%.
With `CC(C)C[C@@H]1NC(=O)[C@H](C)NC(=O)[C@H]([C@@H](C)O)NC(=O)[C@H](CCC(=O)O)NC(=O)[C@@H]2CCCN2C(=O)[C@H](C)NC(=O)[C@H](CCCCN)NC(=O)[C@@H]2CSSC[C@@H](C(=O)N[C@@H](Cc3c[nH]cn3)C(N)=O)NC(=O)[C@H](C)NC(=O)[C@H](C)NC(=O)[C@H](C)NC(=O)[C@H](CSSC[C@H](NC(=O)[C@@H](N)Cc3ccc(O)c(O)c3)C(=O)N[C@@H](CC(N)=O)C(=O)N2)NC1=O` [Example 16, L-Dopa-Cys-Asn-Cys-Lys-Ala-Pro-Glu-Thr-Ala-Leu-Cys-Ala-Ala-Ala-Cys-His-NH2] (H-[Dopa]CNCKAPETALCAAACH-NH2; disulfide 2-12, 4-16) the Papp at 2 h [3] was 2.6 ± 0.3 ×10⁻⁶ cm/s and the “Transport (%) (2h)” value [1] was 3.1±0.3%.
With `CC(C)C[C@@H]1NC(=O)[C@H](C)NC(=O)[C@H]([C@@H](C)O)NC(=O)[C@H](CCC(=O)O)NC(=O)[C@@H]2CCCN2C(=O)[C@H](C)NC(=O)[C@H](CCCCN)NC(=O)[C@@H](NC(=O)[C@@H](N)Cc2ccc(O)c(O)c2)CSSC[C@@H](C(N)=O)NC1=O` [Example 17, L-Dopa-Cys-Lys-Ala-Pro-Glu-Thr-Ala-Leu-Cys-NH2] (H-[Dopa]CKAPETALC-NH2; disulfide 2-10) the Papp at 2 h [3] was 2.4 ×10⁻⁶ cm/s and the “Transport (%) (2h)” value [1] was 2.9%.
With `CC(C)C[C@@H]1NC(=O)[C@H](C)NC(=O)[C@H]([C@@H](C)O)NC(=O)[C@H](CCC(=O)O)NC(=O)[C@@H]2CCCN2C(=O)[C@H](C)NC(=O)[C@H](CCCCN)NC(=O)[C@@H](NC(=O)[C@@H](N)Cc2ccc(O)c(O)c2)CNC(=O)C[C@@H](C(N)=O)NC1=O` [Example 18, L-Dopa-Dap-Lys-Ala-Pro-Glu-Thr-Ala-Leu-Asp-NH2] (H-[Dopa][Dap]KAPETALD-NH2; lactam 2-10) the Papp at 2 h [5] was 4 ± 1.3 ×10⁻⁶ cm/s and the “Transport (%) (2h)” value [4] was 6.6±2.1%.
With `CC(C)C[C@@H]1NC(=O)[C@H](C)NC(=O)[C@H]([C@@H](C)O)NC(=O)[C@H](CCC(=O)O)NC(=O)[C@@H]2CCCN2C(=O)[C@H](C)NC(=O)[C@H](CCCCN)NC(=O)[C@@H]2CSSC[C@@H](C(=O)N[C@@H](Cc3c[nH]cn3)C(N)=O)NC(=O)[C@H](C)NC(=O)[C@H](C)NC(=O)[C@H](C)NC(=O)[C@H](CSSC[C@H](NC(=O)CNC(=O)[C@H](CC(=O)O)NC(=O)[C@H](Cc3ccccc3)NC(=O)[C@H](Cc3ccccc3)NC(=O)[C@@H]3CCCN3C(=O)[C@@H](N)CC(C)C)C(=O)N[C@@H](CC(N)=O)C(=O)N2)NC1=O` [Example 19] (H-LPFFDGCNCKAPETALCAAACH-NH2; disulfide 7-17, 9-21) the Papp at 2 h [3] was 1.5 ± 0.4 ×10⁻⁶ cm/s and the “Transport (%) (2h)” value [1] was 1.8±0.5%.
With `N[C@@H](Cc1ccc(O)c(O)c1)C(=O)O` [L-dopa] the “detection of the cargo alone” value [1] was “not detected”.
In the case of `O=C(O)CCCC[C@@H]1SC[C@@H]2NC(=O)N[C@@H]21` [biotin], the “detection of the cargo alone” value [1] is reported as “not detected”.
With `CCN(CC)c1ccc2c(-c3ccc(S(=O)(=O)O)cc3S(=O)(=O)[O-])c3ccc(=[N+](CC)CC)cc-3oc2c1` [sulforhodamine b] the “detection of the cargo alone” value [1] was “not detected”.
For “Biotin-CNCKAPETALCAAACH-NH2 (cysteine pairing not given here) [Example 15]”, the “Transport (%) (2h)” value [1] was 1.9±0.8%.
With “Gold nanoparticle-Cys-Dap-Lys-Ala-Pro-Glu-Thr-Ala-Leu-Asp-NH2 [Example 25]” the “Transport (%) (2h)” value [4] was 0.034%.
In the case of “H-Cys-Lys-Ala-Pro-Glu-Thr-Ala-Leu-Cys-NH2 (H-CKAPETALC-NH2; cysteine pairing not given here) [Example 2]”, the “half life in human serum” value ([2]; 400 µM) is reported as 3 h and the “Transport (%) (2h)” value [1] is reported as 3.1±1.0%.
With “H-Cys-Lys-Ala-Pro-Glu-Thr-Ala-Leu-Cys-NH2 (H-CKAPETALC-NH2; cysteine pairing not given here) [Example 4]” the “Transport (%) (2h)” value [4] was 9.9±0.6% and the “Papp (x 10^6) cm/s” value ([4]; 2 h, Ringer-HEPES pH 7.4, 200 µM peptides) was 6.1±0.4 (x 10^6) cm/s.
For “H-KAPETAL-NH2 [Example 5, H-Lys-Ala-Pro-Glu-Thr-Ala-Leu-NH2]”, the half-life at 400 µM [2] was at most 8 min, the Papp at 2 h [3] was 2 ± 0.6 ×10⁻⁶ cm/s and the “Transport (%) (2h)” value [1] was 2.3±0.8%.
For “H-LPFFD-NH2 [H-Leu-Pro-Phe-Phe-Asp-NH2, reference compound]”, the “detection of the cargo alone” value [1] was “not detected”.
With “Lysozyme-V3-Cys-Asn-Cys-Lys-Ala-Pro-Glu-Thr-Ala-Leu-Cys-Ala-Ala-Ala-Cys-His-NH2 [Example 21]” the “Transport (%) (2h)” value [1] was 0.08±0.03% and the “Papp (x 10^6) cm/s” value [1] was 0.07±0.03 (x 10^6) cm/s.
With “Quantum dot-PEG-NH-V1-Dap-Lys-Ala-Pro-Glu-Thr-Ala-Leu-Asp-NH2 [Example 24]” the “Transport (%) (2h)” value [4] was 0.23±0.09%.

— patent EP3016671B1, “ACTIVELY T[…] PROTEASE-RESISTANT PEPTIDES AS BBB SHUTTLES AND SHUTTLE-CARGO CONSTRUCTS” (Universitat de Barcelona, priority 2013, dated 2015)
